± gives the uncertainty stated by the source.
B1: Probable E3 ubiquitin-protein ligase MID2, residues 191 to 235; numbered along this chain, Q9UJV3 (parent)
chain: RGITCLDHENEKVNMYCVSDDQLICALCKLVGRHRDHQVASLNDR

Variants of: B1
Experiment: abundance fitness (aPCA) (normalised: wild type 0, dead -1); higher = more abundant; growth selection in yeast, the domain comes from the species named
Conditions: Homo sapiens

Abundance fitness of substitutions, site by site:
M15: Q 0.166 ± 0.07
D21: T -0.163 ± 0.057; Q -0.132 ± 0.063; N 0.031 ± 0.12; K 0.011 ± 0.078; V -0.585 ± 0.061; L -0.526 ± 0.067; E -0.056 ± 0.06; I -0.951 ± 0.17; A -0.081 ± 0.049; M -0.316 ± 0.067; P -0.819 ± 0.11; S -0.088 ± 0.059; H -0.283 ± 0.1; Y -0.527 ± 0.15
C25: L -1.34 ± 0.18; R -1.2 ± 0.12; K -0.951 ± 0.3; F -0.468 ± 0.084; E -0.786 ± 0.11; G -0.805 ± 0.088; T -0.526 ± 0.37; W -1.92 ± 0.34; D -0.834 ± 0.11; Q -1.02 ± 0.15; N -1.14 ± 0.16; P -0.417 ± 0.14; A -1.12 ± 0.18; S -1.03 ± 0.14; Y -0.841 ± 0.26; V -1.03 ± 0.1
A26: S -0.006 ± 0.06; H -0.169 ± 0.36; I -0.621 ± 0.26; E 0.031 ± 0.081; G 0.103 ± 0.053; Y -0.092 ± 0.16; V -0.174 ± 0.076; K -0.051 ± 0.094; D 0.13 ± 0.082; Q -0.017 ± 0.071; T -0.068 ± 0.075; M -0.359 ± 0.12; R 0.006 ± 0.053; F -0.277 ± 0.26; P -0.018 ± 0.066; L -0.296 ± 0.057
L30: G 0.13 ± 0.06; K 0.348 ± 0.11; F -0.022 ± 0.24; V 0.003 ± 0.058; T 0.089 ± 0.064; P -0.136 ± 0.076; S 0.189 ± 0.073; C 0.026 ± 0.075; Y -0.071 ± 0.1; D 0.183 ± 0.072; M 0.003 ± 0.084; Q 0.109 ± 0.06; H -0.012 ± 0.09; W -0.095 ± 0.065; A 0.159 ± 0.057; N 0.078 ± 0.13; E 0.096 ± 0.059
S19: E 0.07 ± 0.057; Q 0.097 ± 0.06; R -0.041 ± 0.046; T 0.049 ± 0.056; K -0.049 ± 0.065; D -0.18 ± 0.11; Y -0.296 ± 0.18; H 0.093 ± 0.11; L -0.08 ± 0.053; M -0.067 ± 0.084; P -0.047 ± 0.066; N -0.092 ± 0.12; W -0.211 ± 0.061; A 0.107 ± 0.05; V -0.032 ± 0.051; F -0.146 ± 0.064; G -0.005 ± 0.047
K12: V -0.083 ± 0.065; R -0.042 ± 0.049; W -0.229 ± 0.074; S 0.095 ± 0.068
L23: E 0.137 ± 0.077; C 0.049 ± 0.22; K 0.213 ± 0.081; V 0.006 ± 0.064; W -0.038 ± 0.072; R 0.023 ± 0.051; N 0.352 ± 0.17; H -0.074 ± 0.16; D 0.064 ± 0.2; P 0.144 ± 0.076; T -0.046 ± 0.14; Q 0.099 ± 0.089; S -0.009 ± 0.07; M 0.199 ± 0.069
V18: C 0.036 ± 0.082; F -0.112 ± 0.11; L -0.024 ± 0.058; G 0.011 ± 0.043; N -0.125 ± 0.083; P -0.025 ± 0.082; R 0.056 ± 0.048; D 0.065 ± 0.065; T 0.2 ± 0.061; S 0.027 ± 0.056; I -0.165 ± 0.089; W -0.19 ± 0.056; A 0.054 ± 0.044; K 0.079 ± 0.064
V13: A -0.104 ± 0.057; S -0.092 ± 0.081; I 0.1 ± 0.12; E -0.215 ± 0.069; Q -0.047 ± 0.12; T -0.179 ± 0.075; G -0.143 ± 0.05; W -0.619 ± 0.18; R -0.077 ± 0.055
L27: V 0.039 ± 0.057; H -0.03 ± 0.22; E 0.144 ± 0.054; Y -0.263 ± 0.13; D -0.029 ± 0.12; M -0.012 ± 0.11; N 0.311 ± 0.11; T -0.144 ± 0.36; Q 0.263 ± 0.056; S 0.052 ± 0.068; P -0.215 ± 0.084; W -0.145 ± 0.063; I -0.466 ± 0.27; G -0.058 ± 0.049; K 0.517 ± 0.14; F 0.099 ± 0.12
R33: M -0.046 ± 0.24; E -0.022 ± 0.093; C -0.28 ± 0.078; Y -0.088 ± 0.24; W -0.39 ± 0.076; Q -0.006 ± 0.08; F -0.764 ± 0.36; V -0.073 ± 0.059; L -0.026 ± 0.064; K 0.084 ± 0.061; P 0.038 ± 0.12; S -0.112 ± 0.081; N -0.127 ± 0.094; T -0.024 ± 0.068; I -0.106 ± 0.11
I24: M -0.104 ± 0.12; P 0.196 ± 0.21; R -0.373 ± 0.12; V 0.058 ± 0.11; K -0.105 ± 0.1; A -0.104 ± 0.11; S -0.179 ± 0.12; E -0.141 ± 0.15; G -0.269 ± 0.084; C -0.436 ± 0.14; H -0.197 ± 0.22; T -0.122 ± 0.074; Q -0.006 ± 0.22; D -0.121 ± 0.11

— the Human Domainome abundance scans (Beltran et al. 2025)
